The target in one assay is T1, human GST-TNFα (human, UniProt P01375 77-233).
T1 construct: also called E. coli expressed soluble human TNF; not shown: GST fusion partner
As to the kind of experiment: ELISA, plate coated with 0.5 µg/ml human GST-TNFα, HRP goat anti-human IgG detection. As for the experimental part:
(§1) Anti-TNFα antibodies were also tested for their ability to bind to soluble recombinant TNFα. Human and monkey (cynomolgous macaque) TNFα were expressed in E. coli as fusion proteins with GST. Binding was assessed by ELISA. […] Bound antibody was detected using an HRP-conjugated goat anti-human IgG antibody.
(In general: In an ELISA, binding on a coated surface is turned into a signal by an enzyme label.)

In assay [1] the target is T2, human TNFα (Tumor Necrosis Factor-alpha), soluble (human, UniProt P01375 77-233).
T2 construct: Recombinant (R&D 210-TA/CF) in screens; biotinylated in the limited antigen assay; also called hTNFα; H-TNFα
Put plainly: BIACORE, average N = 5. Background: SPR reads the build-up and loss of mass on a sensor chip optically.

The target in assay [2] is T3, H/M PvuII chimeric TNFα (human 1-125, murine 126-157) (human; mouse).
T3 construct: also called Hu/M PVu11
T3 chain: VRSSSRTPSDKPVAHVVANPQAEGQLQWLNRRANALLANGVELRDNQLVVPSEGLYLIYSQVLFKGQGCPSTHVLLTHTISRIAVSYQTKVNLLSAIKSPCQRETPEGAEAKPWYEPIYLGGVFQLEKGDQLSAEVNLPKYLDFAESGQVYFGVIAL
Put plainly: ELISA on chimeric/mutant TNFα. The text has this:
(§2) In order to define the binding site for different antibodies, a number of residues of hTNFα were mutated using site directed mutagenesis. A panel of antibodies was screened for binding by an ELISA assay. […] Histidine at position 73 was deleted, an example is illustrated in Table 19.

The target in a further assay is human TNFα R31Q mutant (human, UniProt P01375 77-233). As to the kind of experiment: ELISA on chimeric/mutant TNFα.
Source text: as §2

A further assay deals with human TNFα R131Q mutant (human, UniProt P01375 77-233). Put plainly: ELISA on chimeric/mutant TNFα.
Source text: as §2

Assay [3] has as its target T4, H/M HincII chimeric TNFα (human 1-91, murine 92-157) (human; mouse).
T4 construct: Murine range printed 92-157 (human-aligned); also called Hu/M Hin C l1
T4 chain: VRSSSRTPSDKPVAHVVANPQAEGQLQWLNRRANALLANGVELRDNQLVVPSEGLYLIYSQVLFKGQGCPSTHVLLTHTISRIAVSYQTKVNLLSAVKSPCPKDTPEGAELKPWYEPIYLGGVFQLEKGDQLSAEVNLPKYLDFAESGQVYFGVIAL
As to the kind of experiment: ELISA on chimeric/mutant TNFα.
Source text: as §2

Assay [4] addresses T5, H/M BglI chimeric TNFα (human 1-36, murine 37-157) (human; mouse, UniProt P06804 81-235).
T5 construct: Murine range is printed as 37-157 in human-aligned numbering; also called H/MBgl1; Hu/MBgl1
T5 chain: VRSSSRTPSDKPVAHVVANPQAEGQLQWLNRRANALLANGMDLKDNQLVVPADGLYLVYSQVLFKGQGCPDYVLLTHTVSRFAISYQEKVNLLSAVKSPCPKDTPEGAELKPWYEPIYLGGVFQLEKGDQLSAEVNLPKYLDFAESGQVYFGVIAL
Put plainly: ELISA on chimeric/mutant TNFα.
Source text: as §2

The target of assay [5] is T6, cynomolgus macaque TNFα (KinExA) (cynomolgus macaque, UniProt P79337 77-233, limits assumed).
T6 construct: also called monkey TNFα
Put plainly: KinExA. As for the experimental part: (§3) The kinetic measurements of the anti-TNFα antibodies were evaluated using KinExA® and BIACORE® technologies. The KinExA® method involves solution-based determination of formal affinity measurements at equilibrium. To measure the binding kinetics of each human anti-TNFα antibody, two experiments in replicates of three were performed. In both experiments a known concentration of antigen was titrated and a different antibody concentration was added to each antigen titration and allowed to reach binding equilibrium. […] The results were analyzed by dual curve analysis. […] In addition, to negate the possibility of avidity effects, Fab fragments were generated by papain cleavage and the kinetic analysis was repeated (see Table 24).
(§4) The KinExA method was also used to measure the Kd describing this binding affinity.
A general note: In KinExA the mixture passes briefly over coated beads that capture the unbound partner.

For assay [6], the target named is T2, human TNFα (Tumor Necrosis …). Put plainly: cell-based or functional assay.
The target is the same in assay [7]. As to the kind of experiment: KinExA, TNFα counted as one trimer. How it is done: as §3
For the next assay, the target named is T7, mouse TNFα (mouse, UniProt P06804 80-235).
T7 construct: also called M TNFα; murine TNF
T7 sequence: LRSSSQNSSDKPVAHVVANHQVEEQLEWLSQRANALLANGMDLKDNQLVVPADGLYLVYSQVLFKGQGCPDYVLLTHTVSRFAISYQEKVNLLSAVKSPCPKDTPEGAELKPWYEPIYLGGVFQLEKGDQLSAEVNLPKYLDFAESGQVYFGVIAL
Put plainly: binding to chimeric TNF proteins.

Assay [8] has as its target T8, monkey (cynomolgous macaque) GST-TNFα (cynomolgous macaque, UniProt P79337 77-233).
T8 construct: also called E. coli expressed soluble cynomolgous macaque monkey TNF; monkey TNFα; not shown: GST fusion partner
As to the kind of experiment: ELISA, plate coated with 2 µg/ml monkey (cynomolgus macaque) GST-TNFα, HRP goat anti-human IgG detection. How it is done:
as §1

Assay [9] addresses T2, human TNFα (Tumor Necrosis …). Put plainly: cell-based or functional assay. The source holds these as a separate data set.
The target in assay [10] is T6, cynomolgus macaque TNFα (KinExA). Put plainly: KinExA, TNFα as a monomer. As for the experimental part: as §3, §4
For assay [11], the target named is transmembrane mutant TNFα expressed on the surface of CHO cells (UniProt P01375 1-233). As to the kind of experiment: cell-based or functional assay.
The target in assay [12] is T2, human TNFα (Tumor Necrosis …). As to the kind of experiment: KinExA, TNFα counted as three monomers. As for the experimental part: as §3
Assay [13] has the same target. Put plainly: cell-based or functional assay. This is another data set of the same source.
Assay [14] shares this target. Put plainly: BIACORE, average.

Chain of transmembrane mutant TNFα expressed on the surface of CHO cells (P01375 whole entry, change not shown, form in doubt): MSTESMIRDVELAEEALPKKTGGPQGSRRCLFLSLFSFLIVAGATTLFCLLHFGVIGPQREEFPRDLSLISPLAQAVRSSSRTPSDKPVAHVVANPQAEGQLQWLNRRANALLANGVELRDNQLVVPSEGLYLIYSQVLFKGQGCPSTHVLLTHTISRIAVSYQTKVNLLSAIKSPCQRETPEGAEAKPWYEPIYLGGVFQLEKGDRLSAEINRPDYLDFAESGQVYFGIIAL
Chain of human TNFα R31Q mutant (P01375 77-233 R107Q): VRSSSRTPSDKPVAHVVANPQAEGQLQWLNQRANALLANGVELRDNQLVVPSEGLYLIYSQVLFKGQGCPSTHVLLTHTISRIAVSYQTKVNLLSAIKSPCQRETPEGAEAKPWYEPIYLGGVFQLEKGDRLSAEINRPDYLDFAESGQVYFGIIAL

B1: 299v2 (antibody, human IgG1, V domains shown)
VH: QVQLVESGGGVVQPGRSLRLSCAASGFTFSSYDMHWVRQAPGKGLEWVAVIWSDGSIKYYADSVKGRFTISRDNSKNTLYLQMNSLRAEDTAVYYCAREVESAMGGFYYNGMDVWGQGTTVTVSS
VL: DIQMTQSPSSLSASVGDRVTITCRASQGIRIDLGWYQQKPGKAPKRLIYAASTLQSGVPSRFSGSGSGTEFIFTISSLQPEDFASYYCLQHKSYPLTFGGGTKVEIK
notes: XENOMAX derived, recombinant human IgG1 kappa; also called 299v2Ab; SC299V2
The EC50 (read off the curve) is the concentration at which the effect is half-maximal. Broadly, the koff is a measure of how fast the partners let go of each other. The kon is the rate constant with which the complex forms. A word on the Kd: it is the constant that tells how readily two partners part at equilibrium. On to B1, for which the “EC50 (read off the curve)” value (with human GST-TNFα; in assay [8]) was ~4 ng/mL each time. In assay [1], this molecule yielded a koff of 1.03e-05 s⁻¹. In assay [1], this molecule registered a kon of 2.16e+06 M⁻¹ s⁻¹. In addition, the binding result in assay [2] is listed as “binds”; with human TNFα R31Q mutant it was “no binding”; in the assay with human TNFα R131Q mutant it was “binds”; in assay [3], “binds”; in assay [4], “binds”; with mouse TNFα, “no binding”. In addition, the “fold lower affinity than for human TNFα” value in assay [5] is ~200 fold. In addition, in assay [6], the “In vivo Potency (IC50), ALT, hTNFα/D-GalN hepatic injury in mice” value was determined as 50000 pM. Moreover, the “In vivo Potency (IC50), human TNFα-induced IL-6 in mice” value in assay [6] came out at 43000 pM. Moreover, the Kd in assay [7] amounted to 1.07 pM; in assay [10], 626 pM; in assay [12], 3.2 pM; in [14] it was 5.7 pM. Moreover, the “Whole Blood IC50, TNFα-induced IL-8 production” value in assay [9] turned out to be 131 pM. The “ADCC (%)” value in assay [11] came out at 16%. Further, the “CDC (%)” value in [11] is 9%. Moreover, the “IC50 1 hr Pre-incubation, TNF induced apoptosis in MCF-7 cells” value in assay [13] was determined as 18.6 pM. In assay [13], the “IC50 18 hr Pre-incubation, TNF induced apoptosis in MCF-7 cells” value turned out to be 1.6 pM.

The values above are taken from patent US20050049402A1 (Amgen, published 2005).
